According to US6703362 (CYTOGEN, dated 2004):

T1: D2H receptor domain (human D2H transporter, amino acid residues 387-685), His-tag fusion protein (human, UniProt Q07837 387-685)
T1 construct: purified under denaturing conditions; also called recombinant D2H; not shown: poly-histidine tag (pET vector) at the NH2-terminal end
T1 sequence: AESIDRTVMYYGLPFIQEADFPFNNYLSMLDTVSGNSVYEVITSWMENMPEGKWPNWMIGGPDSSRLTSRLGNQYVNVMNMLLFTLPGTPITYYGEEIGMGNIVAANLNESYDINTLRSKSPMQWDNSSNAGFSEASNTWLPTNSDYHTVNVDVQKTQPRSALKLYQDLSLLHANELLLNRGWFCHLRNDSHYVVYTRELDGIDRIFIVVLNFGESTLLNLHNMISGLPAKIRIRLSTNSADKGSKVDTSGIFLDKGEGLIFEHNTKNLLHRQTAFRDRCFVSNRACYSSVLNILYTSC


What was measured:
[1] = molecular target: T2, hSI receptor domain (human sucrase-isomaltase complex, amino acid residues 272-667), His-tag fusion protein (human, UniProt P14410 272-667); assay: phage ELISA, plate coated with hSI domain
T2 construct: also called hS1; recombinant hSI; not shown: poly-histidine tag (pET vector) at the NH2-terminal end
Experimental: (§1) 6.6. Receptor ELISA Procedure 96 well plates were coated overnight with GIT receptor, BSA and, optionally, IDE (insulin degrading enzyme, an irrelevant His-fusion protein)or hTF. The plates were blocked for one hour with 0.5% BSA-PBS. After clarification, the amplified phage were diluted 1:100 in […] plus 0.05% Tween 20 in PBS and added to the plates. Following incubation of the plates on a rotator for 1 to 2 hours, the plates were washed 5 times with 1% BSA plus 0.05% Tween 20 in PBS. […] After the plates were washed 5 times, as described above, TMB substrate was added to the wells. The plates were read at 650 nm absorbance.

[2] = molecular target: T2, hSI receptor domain (human …); assay: phage ELISA, OD on hSI over OD on BSA
Experimental: as §1

[3] = molecular target: T1, D2H receptor domain (human D2H …); assay: phage ELISA, plate coated with D2H domain
Experimental: as §1

T2 sequence (P14410 272-667, one chain of several): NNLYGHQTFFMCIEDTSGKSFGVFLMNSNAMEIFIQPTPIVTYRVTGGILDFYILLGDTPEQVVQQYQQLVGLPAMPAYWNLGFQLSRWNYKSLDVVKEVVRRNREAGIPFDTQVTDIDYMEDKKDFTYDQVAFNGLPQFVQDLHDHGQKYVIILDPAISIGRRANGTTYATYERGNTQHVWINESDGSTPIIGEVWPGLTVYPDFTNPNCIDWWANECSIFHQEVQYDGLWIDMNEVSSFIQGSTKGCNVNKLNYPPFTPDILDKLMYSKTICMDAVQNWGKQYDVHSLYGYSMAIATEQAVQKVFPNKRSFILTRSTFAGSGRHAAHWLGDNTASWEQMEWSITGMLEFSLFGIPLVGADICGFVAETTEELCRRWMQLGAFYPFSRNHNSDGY

Row | Binder | OD [1] [OD] | hSI/BSA [2] [ratio] | OD [3] [OD]
1 | SNi34 (Assayed as M13 phage clone displaying the insert) peptide: SPCGGSWGRFMQGGLFGGRTDGCGAHRNRTSASLEPPSSDYAETVESCLAKPHTENSFTNVWKDDKTLDRYANYEGCLWNATGVVVCTGDETQCYGTWVPIGLAIPENEGGGSEGGGSEGGGSEGGGTKPPEYGDTPIPGYTYINPLDGTYPPGTEQNPANPNPSLEESQPLNTFMFQNNRFRNRQGALTVYTGTVTQGTDPVKTYYQYTPVSSKAMYDAYWNGKFRDCAFHSGFNEDPFVCEYQGQSSDLPQPPVNAGGGSGGGSGGGSEGGGSEGGGSEGGGSEGGGSGGGSGSGDFDYEKMANANKGAMTENADENALQSDAKGKLDSVATDYGAAIDGFIGDVSGLANGNGATGDFAGSNSQMAQVGDGDNSPLMNNFRQYLPSLPQSVECRPFVFSAGKPYEFSIDCDKINLFRGVFAFLLYVATFMYVFSTFANILRNKES | 0.761 | 7 | –
2 | SNiAX2 (Assayed as M13 phage clone displaying the insert) peptide: SDSDGDHYGLRGGVRCSLRDRGCGLALSTVHAGPPSFYPKLSSPAETVESCLAKPHTENSFTNVWKDDKTLDRYANYEGCLWNATGVVVCTGDETQCYGTWVPIGLAIPENEGGGSEGGGSEGGGSEGGGTKPPEYGDTPIPGYTYINPLDGTYPPGTEQNPANPNPSLEESQPLNTFMFQNNRFRNRQGALTVYTGTVTQGTDPVKTYYQYTPVSSKAMYDAYWNGKFRDCAFHSGFNEDPFVCEYQGQSSDLPQPPVNAGGGSGGGSGGGSEGGGSEGGGSEGGGSEGGGSGGGSGSGDFDYEKMANANKGAMTENADENALQSDAKGKLDSVATDYGAAIDGFIGDVSGLANGNGATGDFAGSNSQMAQVGDGDNSPLMNNFRQYLPSLPQSVECRPFVFSAGKPYEFSIDCDKINLFRGVFAFLLYVATFMYVFSTFANILRNKES | 0.383 | 6 | –
3 | SNi38 (Assayed as M13 phage clone displaying the insert) peptide: RGAADQRRGWSENLGLPRVGWDAIAHNSYTFTSRRPRPPAETVESCLAKPHTENSFTNVWKDDKTLDRYANYEGCLWNATGVVVCTGDETQCYGTWVPIGLAIPENEGGGSEGGGSEGGGSEGGGTKPPEYGDTPIPGYTYINPLDGTYPPGTEQNPANPNPSLEESQPLNTFMFQNNRFRNRQGALTVYTGTVTQGTDPVKTYYQYTPVSSKAMYDAYWNGKFRDCAFHSGFNEDPFVCEYQGQSSDLPQPPVNAGGGSGGGSGGGSEGGGSEGGGSEGGGSEGGGSGGGSGSGDFDYEKMANANKGAMTENADENALQSDAKGKLDSVATDYGAAIDGFIGDVSGLANGNGATGDFAGSNSQMAQVGDGDNSPLMNNFRQYLPSLPQSVECRPFVFSAGKPYEFSIDCDKINLFRGVFAFLLYVATFMYVFSTFANILRNKES | 0.466 | 6 | –
4 | DAB30 (Assayed as M13 phage clone displaying the insert) peptide: SGFWEFSRGLWDGENRKSVRSGCGFRGSSAQGPCPVTPATIDKHAETVESCLAKPHTENSFTNVWKDDKTLDRYANYEGCLWNATGVVVCTGDETQCYGTWVPIGLAIPENEGGGSEGGGSEGGGSEGGGTKPPEYGDTPIPGYTYINPLDGTYPPGTEQNPANPNPSLEESQPLNTFMFQNNRFRNRQGALTVYTGTVTQGTDPVKTYYQYTPVSSKAMYDAYWNGKFRDCAFHSGFNEDPFVCEYQGQSSDLPQPPVNAGGGSGGGSGGGSEGGGSEGGGSEGGGSEGGGSGGGSGSGDFDYEKMANANKGAMTENADENALQSDAKGKLDSVATDYGAAIDGFIGDVSGLANGNGATGDFAGSNSQMAQVGDGDNSPLMNNFRQYLPSLPQSVECRPFVFSAGKPYEFSIDCDKINLFRGVFAFLLYVATFMYVFSTFANILRNKES | – | – | 0.704
5 | DAX15 (Assayed as M13 phage clone displaying the insert) peptide: SESGRCRSVSRWMTTWQTQKGGCGSNVSRGSPLDPSHQTGHATTAETVESCLAKPHTENSFTNVWKDDKTLDRYANYEGCLWNATGVVVCTGDETQCYGTWVPIGLAIPENEGGGSEGGGSEGGGSEGGGTKPPEYGDTPIPGYTYINPLDGTYPPGTEQNPANPNPSLEESQPLNTFMFQNNRFRNRQGALTVYTGTVTQGTDPVKTYYQYTPVSSKAMYDAYWNGKFRDCAFHSGFNEDPFVCEYQGQSSDLPQPPVNAGGGSGGGSGGGSEGGGSEGGGSEGGGSEGGGSGGGSGSGDFDYEKMANANKGAMTENADENALQSDAKGKLDSVATDYGAAIDGFIGDVSGLANGNGATGDFAGSNSQMAQVGDGDNSPLMNNFRQYLPSLPQSVECRPFVFSAGKPYEFSIDCDKINLFRGVFAFLLYVATFMYVFSTFANILRNKES | – | – | 0.391
6 | SNi10 (Assayed as M13 phage clone displaying the insert) peptide: RVGQCTDSDVRRPWARSCAHQGCGAGTRNSHGCITRPLRQASAHAETVESCLAKPHTENSFTNVWKDDKTLDRYANYEGCLWNATGVVVCTGDETQCYGTWVPIGLAIPENEGGGSEGGGSEGGGSEGGGTKPPEYGDTPIPGYTYINPLDGTYPPGTEQNPANPNPSLEESQPLNTFMFQNNRFRNRQGALTVYTGTVTQGTDPVKTYYQYTPVSSKAMYDAYWNGKFRDCAFHSGFNEDPFVCEYQGQSSDLPQPPVNAGGGSGGGSGGGSEGGGSEGGGSEGGGSEGGGSGGGSGSGDFDYEKMANANKGAMTENADENALQSDAKGKLDSVATDYGAAIDGFIGDVSGLANGNGATGDFAGSNSQMAQVGDGDNSPLMNNFRQYLPSLPQSVECRPFVFSAGKPYEFSIDCDKINLFRGVFAFLLYVATFMYVFSTFANILRNKES | 0.57 | 11 | –
7 | DAX24 (Assayed as M13 phage clone displaying the insert) peptide: RMEDIKNSGWRDSCRWGDLRPGCGSRQWYPSNMRSSRDYPAGGHAETVESCLAKPHTENSFTNVWKDDKTLDRYANYEGCLWNATGVVVCTGDETQCYGTWVPIGLAIPENEGGGSEGGGSEGGGSEGGGTKPPEYGDTPIPGYTYINPLDGTYPPGTEQNPANPNPSLEESQPLNTFMFQNNRFRNRQGALTVYTGTVTQGTDPVKTYYQYTPVSSKAMYDAYWNGKFRDCAFHSGFNEDPFVCEYQGQSSDLPQPPVNAGGGSGGGSGGGSEGGGSEGGGSEGGGSEGGGSGGGSGSGDFDYEKMANANKGAMTENADENALQSDAKGKLDSVATDYGAAIDGFIGDVSGLANGNGATGDFAGSNSQMAQVGDGDNSPLMNNFRQYLPSLPQSVECRPFVFSAGKPYEFSIDCDKINLFRGVFAFLLYVATFMYVFSTFANILRNKES | – | – | 0.591
8 | DAX27 (Assayed as M13 phage clone displaying the insert) peptide: SHPWYRHWNHGDFSGSGQSRHTPPESPHPGRPNATIAETVESCLAKPHTENSFTNVWKDDKTLDRYANYEGCLWNATGVVVCTGDETQCYGTWVPIGLAIPENEGGGSEGGGSEGGGSEGGGTKPPEYGDTPIPGYTYINPLDGTYPPGTEQNPANPNPSLEESQPLNTFMFQNNRFRNRQGALTVYTGTVTQGTDPVKTYYQYTPVSSKAMYDAYWNGKFRDCAFHSGFNEDPFVCEYQGQSSDLPQPPVNAGGGSGGGSGGGSEGGGSEGGGSEGGGSEGGGSGGGSGSGDFDYEKMANANKGAMTENADENALQSDAKGKLDSVATDYGAAIDGFIGDVSGLANGNGATGDFAGSNSQMAQVGDGDNSPLMNNFRQYLPSLPQSVECRPFVFSAGKPYEFSIDCDKINLFRGVFAFLLYVATFMYVFSTFANILRNKES | – | – | 1.58
9 | SNi45 (Assayed as M13 phage clone displaying the insert) peptide: SGGEVSSWGRVNDLCARVSWTGCGTARSARTDNKGFLPKHSSLRAETVESCLAKPHTENSFTNVWKDDKTLDRYANYEGCLWNATGVVVCTGDETQCYGTWVPIGLAIPENEGGGSEGGGSEGGGSEGGGTKPPEYGDTPIPGYTYINPLDGTYPPGTEQNPANPNPSLEESQPLNTFMFQNNRFRNRQGALTVYTGTVTQGTDPVKTYYQYTPVSSKAMYDAYWNGKFRDCAFHSGFNEDPFVCEYQGQSSDLPQPPVNAGGGSGGGSGGGSEGGGSEGGGSEGGGSEGGGSGGGSGSGDFDYEKMANANKGAMTENADENALQSDAKGKLDSVATDYGAAIDGFIGDVSGLANGNGATGDFAGSNSQMAQVGDGDNSPLMNNFRQYLPSLPQSVECRPFVFSAGKPYEFSIDCDKINLFRGVFAFLLYVATFMYVFSTFANILRNKES | 0.518 | 9 | –
10 | SNiAX6 (Assayed as M13 phage clone displaying the insert) peptide: RTTTAKGCLLGSFGVLSGCSFTPTSPPPHLGYPPHSVNAETVESCLAKPHTENSFTNVWKDDKTLDRYANYEGCLWNATGVVVCTGDETQCYGTWVPIGLAIPENEGGGSEGGGSEGGGSEGGGTKPPEYGDTPIPGYTYINPLDGTYPPGTEQNPANPNPSLEESQPLNTFMFQNNRFRNRQGALTVYTGTVTQGTDPVKTYYQYTPVSSKAMYDAYWNGKFRDCAFHSGFNEDPFVCEYQGQSSDLPQPPVNAGGGSGGGSGGGSEGGGSEGGGSEGGGSEGGGSGGGSGSGDFDYEKMANANKGAMTENADENALQSDAKGKLDSVATDYGAAIDGFIGDVSGLANGNGATGDFAGSNSQMAQVGDGDNSPLMNNFRQYLPSLPQSVECRPFVFSAGKPYEFSIDCDKINLFRGVFAFLLYVATFMYVFSTFANILRNKES | 0.369 | 7 | –
11 | SNi28 (Assayed as M13 phage clone displaying the insert) peptide: SHSGGMNRAYGDVFRELRDRWNATSHHTRPTPQLPRGPNAETVESCLAKPHTENSFTNVWKDDKTLDRYANYEGCLWNATGVVVCTGDETQCYGTWVPIGLAIPENEGGGSEGGGSEGGGSEGGGTKPPEYGDTPIPGYTYINPLDGTYPPGTEQNPANPNPSLEESQPLNTFMFQNNRFRNRQGALTVYTGTVTQGTDPVKTYYQYTPVSSKAMYDAYWNGKFRDCAFHSGFNEDPFVCEYQGQSSDLPQPPVNAGGGSGGGSGGGSEGGGSEGGGSEGGGSEGGGSGGGSGSGDFDYEKMANANKGAMTENADENALQSDAKGKLDSVATDYGAAIDGFIGDVSGLANGNGATGDFAGSNSQMAQVGDGDNSPLMNNFRQYLPSLPQSVECRPFVFSAGKPYEFSIDCDKINLFRGVFAFLLYVATFMYVFSTFANILRNKES | 0.942 | 8 | –
